Values quoted from earlier work, collected in patent publication US11739305B2, “Sialyltransferase variants having neosialidase activity” (The Regents of the University of California, priority 2017, dated 2023).
Read-outs that look alike come from different tables or passages of the source.

How the values were obtained:
[1] = reported previously using Neu5Acα2-6GalβpNP as the substrate (Li, Chen, et al. Mol. BioSyst. 2011)
[2] = wild-type, reported previously (Cheng, Chen, et al. Glycobiology 2010)
[3] = CMP-Neu5Ac hydrolysis, wild-type, reported previously (McArthur, Chen, et al. Org. Biomol. Chem. 2017)

Row | Molecule | Km [1] [mM] | kcat [1] [s⁻¹] | Km [2] [mM] | kcat [2] [s⁻¹] | Km [3] [mM] | kcat [3]
1 | hNEU2: human NEU2, an α2-3/6/8-sialidase (protein, UniProt Q9Y3R4 1-380, looked up) Sialidase-2: MASLPVLQKESVFQSGAHAYRIPALLYLPGQQSLLAFAEQRASKKDEHAELIVLRRGDYDAPTHQVQWQAQEVVAQARLDGHRSMNPCPLYDAQTGTLFLFFIAIPGQVTEQQQLQTRANVTRLCQVTSTDHGRTWSSPRDLTDAAIGPAYREWSTFAVGPGHCLQLHDRARSLVVPAYAYRKLHPIQRPIPSAFCFLSHDHGRTWARGHFVAQDTLECQVAEVETGEQRVVTLNARSHLRARVQAQSTNDGLDFQESQLVKKLVEPPPQGCQGSVISFPSPRSGPGSPAQWLLYTHPTHSWQRADLGAYLNPRPPAPEAWSEPVLLAKGSCAYSDLQSMGTGPDGSPLFGCLYEANDYEEIVFLMFTLKQAFPAEYLPQ | 2.1 ± 0.2 | 0.18 ± 0.01 | – | – | – | –
2 | Pd2,6ST: Photobacterium damselae α2-6-sialyltransferase, wild-type enzyme (GenBank BAA25316.1, SEQ ID NO: 1) (protein, listed as Photobacterium damselae) MKKILTVLSIFILSACNSDNTSLKETVSSNSADVVETETYQLTPIDAPSSFLSHSWEQTCGTPILNESDKQAISFDFVAPELKQDEKYCFTFKGITGDHRYITNTTLTVVAPTLEVYIDHASLPSLQQLIHIIQAKDEYPSNQRFVSWKRVTVDADNANKLNIHTYPLKGNNTSPEMVAAIDEYAQSKNRLNIEFYTNTAHVFNNLPPIIQPLYNNEKVKISHISLYDDGSSEYVSLYQWKDTPNKIETLEGEVSLLANYLAGTSPDAPKGMGNRYNWHKLYDTDYYFLREDYLDVEANLHDLRDYLGSSAKQMPWDEFAKLSDSQQTLFLDIVGFDKEQLQQQYSQSPLPNFIFTGTTTWAGGETKEYYAQQQVNVINNAINETSPYYLGKDYDLFFKGHPAGGVINDIILGSFPDMINIPAKISFEVLMMTDMLPDTVAGIASSLYFTIPADKVNFIVFTSSDTITDREEALKSPLVQVMLTLGIVKEKDVLFWADHKVNSMEVAIDEACTRIIAKRQPTASDLRLVIAIIKTITDLERIGDVAESIAKVALESFSNKQYNLLVSLESLGQHTVRMLHEVLDAFARMDVKAAIEVYQEDDRIDQEYESIVRQLMAHMMEDPSSIPNVMKVMWAARSIERVGDRCQNICEYIIYFVKGKDVRHTKPDDFGTMLD | – | – | 7.6 ± 0.5 | 0.137 ± 0.005 | 45 ± 14 | (4.0 ± 0.9) × 10^2 min^−1
